In IntAct's records for PubMed 24520911:

B1: Lon protease homolog, mitochondrial (Homo sapiens), P36776 (parent)
chain: MAASTGYVRLWGAARCWVLRRPMLAAAGGRVPTAAGAWLLRGQRTCDASPPWALWGRGPAIGGQWRGFWEASSRGGGAFSGGEDASEGGAEEGAGGAGGSAGAGEGPVITALTPMTIPDVFPHLPLIAITRNPVFPRFIKIIEVKNKKLVELLRRKVRLAQPYVGVFLKRDDSNESDVVESLDEIYHTGTFAQIHEMQDLGDKLRMIVMGHRRVHISRQLEVEPEEPEAENKHKPRRKSKRGKKEAEDELSARHPAELAMEPTPELPAEVLMVEVENVVHEDFQVTEEVKALTAEIVKTIRDIIALNPLYRESVLQMMQAGQRVVDNPIYLSDMGAALTGAESHELQDVLEETNIPKRLYKALSLLKKEFELSKLQQRLGREVEEKIKQTHRKYLLQEQLKIIKKELGLEKDDKDAIEEKFRERLKELVVPKHVMDVVDEELSKLGLLDNHSSEFNVTRNYLDWLTSIPWGKYSNENLDLARAQAVLEEDHYGMEDVKKRILEFIAVSQLRGSTQGKILCFYGPPGVGKTSIARSIARALNREYFRFSVGGMTDVAEIKGHRRTYVGAMPGKIIQCLKKTKTENPLILIDEVDKIGRGYQGDPSSALLELLDPEQNANFLDHYLDVPVDLSKVLFICTANVTDTIPEPLRDRMEMINVSGYVAQEKLAIAERYLVPQARALCGLDESKAKLSSDVLTLLIKQYCRESGVRNLQKQVEKVLRKSAYKIVSGEAESVEVTPENLQDFVGKPVFTVERMYDVTPPGVVMGLAWTAMGGSTLFVETSLRRPQDKDAKGDKDGSLEVTGQLGEVMKESARIAYTFARAFLMQHAPANDYLVTSHIHLHVPEGATPKDGPSAGCTIVTALLSLAMGRPVRQNLAMTGEVSLTGKILPVGGIKEKTIAAKRAGVTCIVLPAENKKDFYDLAAFITEGLEVHFVEHYREIFDIAFPDEQAEALAVER
partner: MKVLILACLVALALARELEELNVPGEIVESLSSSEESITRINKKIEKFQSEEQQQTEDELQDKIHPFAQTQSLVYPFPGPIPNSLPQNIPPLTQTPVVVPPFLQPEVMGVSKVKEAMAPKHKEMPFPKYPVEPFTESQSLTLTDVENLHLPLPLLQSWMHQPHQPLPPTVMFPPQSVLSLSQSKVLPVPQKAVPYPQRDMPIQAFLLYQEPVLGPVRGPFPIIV

Variants of: B1
Conditions: with casb_bovin CSN2, P02666
For K529R, the “effect of a mutation on the interaction” value was “decreasing interaction”.

Variants of: B1
Conditions: with casb_bovin CSN2, P02666
Remark: another data set of the same source
With G894P the “effect of a mutation on the interaction” value was “decreasing interaction”.

Variants of: B1
Conditions: with casb_bovin CSN2, P02666
Remark: another data set of the same source
With G893P;G894A the “effect of a mutation on the interaction” value was “decreasing interaction”.

Variants of: B1
Conditions: with casb_bovin CSN2, P02666
Remark: another data set of the same source
G893P was tested, and the “effect of a mutation on the interaction” value was “decreasing interaction”.

Variants of: B1
Conditions: with casb_bovin CSN2, P02666
Remark: another data set of the same source
For W770P, the “effect of a mutation on the interaction” value was “decreasing interaction”.

Variants of: B1
Conditions: with casb_bovin CSN2, P02666
Remark: another data set of the same source
With G893A;G894P the “effect of a mutation on the interaction” value was “decreasing interaction”.
